From US20140322242A1, “MATERIALS AND METHODS FOR THE PREVENTION AND TREATMENT OF CANCER” (Icahn School of Medicine at Mount Sinai, priority 2010, published 2014)

Experiments:
healthy prostate = assay: Healthy (tumor-free) prostate: nerve density, epithelial cell proliferation, apoptosis, Chrm1 expression; format: in vivo, mouse
Protocol: (§1) Upon sacrifice, mouse prostate tissues were immersed in OCT medium (Tissue Teck®). Five-micrometer frozen sections were stained with hematoxylin-eosin (H&E). For immunofluorescence, unstained prostate sections were fixed with acetone or methanol. For staining of nerves, fixed sections were incubated in H2O2 to quench endogenous peroxidase and non-specific binding was blocked with goat serum in bovine serum albumin (BSA) solution and the avidin/biotin blocking kit (Vector Laboratories, Burlingame, Calif.). Sections were incubated with a rabbit anti-TH antibody (Millipore, Billerica, Mass.), or anti-VAChT antibody (Phoenix Pharmaceuticals, Inc., Burlingame, Calif.), or anti-NF-L antibody (Millipore), or anti-NF-H antibody (Abcam, Cambridge, Mass.) and then with a secondary biotinylated goat anti-rabbit antibody (Vector Laboratories). Signal was amplified using the Vectastain Elite ABC Kit (Vector Laboratories) and visualized using the Tyramide Signal Amplification kit for TRITC (PerkinElmer, Boston, Mass.).
(§2) For proliferative cell quantification, sections were incubated with a rabbit polyclonal anti-Ki67 (Abcam) and then Alexafluor 568-conjugated goat anti-rabbit antibody (Molecular Probes, Carlsbad, Calif.).
For apoptotic cell quantification, prostate sections were fixed with 4% paraformaldehyde (PFA) and stained with the Mebstain Apoptosis Kit according to manufacturer's recommendations (MBL International, Woburn, Mass.). Basement membranes were stained with a rat polyclonal anti-α2laminin antibody (Abcam) followed by Alexafluor647-conjugated goat anti-rat antibody (Molecular Probes).
Gene expression levels were analyzed from RNA extracted, using the TRIzol solution (Invitrogen, Carlsbad, Calif.), from PC-3, DU145, LNCaP cell lines or prostates from Balb/c nu/nu mice by quantitative real-time PCR, as described previously (Mendez-Ferrer, Nature, 452:442-447 (2008)).

murine fetal neurons = assay: Neurite outgrowth in fetal neuronal cultures; format: cell-based, mouse; conditions: G-CSF, cultivation for 6 days
Protocol: To evaluate neurite growth, cultures were fixed for 10 minutes at −20° C. with 5% glacial acetic acid/95% ethanol and then incubated with an anti-phosphorylated NF-H antibody (Sigma, clone NE14) and a rabbit anti-microtubule-associated protein-2 antibody (Chemicon), followed by Alexafluor488-conjugated goat anti-mouse antibody and Alexafluor568-conjugated goat anti-rabbit antibody (Molecular probes). For G-CSFR staining, mouse fetal neurons in culture were fixed with methanol and then incubated with a rabbit anti-G-CSFR (Santa-Cruz biotechnology, Santa Cruz, Calif.) and Alexafluor568-conjugated goat anti-rabbit antibody (Molecular probes). Neurite outgrowth was analyzed objectively from 40 random fields (field area=0.6 mm^2) per growth condition using the “Neurite Outgrowth” module of Metamorph software (MDSAT).
Neuronal cultures were prepared from embryonic day 15 fetal neocortex as described in Dobrenis et al., J Neurosci. Res. 82(3):306-315 (2005), incorporated herein by reference. Briefly, after enzymatic and mechanical tissue dissociation, cells were plated at 2.5×10^4/cm^2 (day 0) and treated with 20 μg/ml 5-fluoro-2′ deoxyuridine and 50 μg/ml uridine at day 4 for 24 hours to eliminate glial growth. At day 1, cultures were maintained in serum-free medium and incubated with G-CSF at different concentrations (0, 500, 1000 ng/ml) until day 7.

PC-3luc cells [1] = assay: PC-3luc cell proliferation / cytotoxicity in vitro (MTT); format: cell-based, human; conditions: G-CSF, 96 hours, three concentrations
Protocol: A cell proliferation assay was performed on human PC-3 prostate tumor cells after 96 hours of treatment by G-CSF at three different concentrations by comparison with human leukemic cells (HL-60 and U937). Cell proliferation was quantified by a cell viability assay using MTT (3-[4,5-dimethylthiazole-2-yl]-2,5-diphenyltetrazolium bromide (Sigma). The percentage of viable cells was calculated by comparing the optical density (OD) of the treated samples with those incubated with vehicle. Methods were carried out as described by Magnon, et al., Cancer Res, 65, 4353-61 (2005); incorporated herein by reference in its entirety.

PC-3luc cells [2] = assay: Xenogeneic orthotopic PC-3luc prostate tumor model in nude mice (bioluminescence, immunofluorescence); format: in vivo, Balb/c nu/nu mice
Protocol: The microenvironment of a developing tumor is important in cancer development and metastasis. A xenogeneic orthotopic model of prostate cancer was established to provide a minimally disruptive microenvironment for this cancer in live mice.
In vivo and ex vivo bioluminescence imaging was performed and analyzed using an IVIS imaging system 200 series (Xenogen, Caliper Life Sciences, Hopkinton, Mass.). Bioluminescent signal was induced by i.p. injection of D-luciferin (150 mg/kg in PBS) 8 minutes prior to in vivo imaging. For ex vivo imaging, D-luciferin (300 mg/kg) was injected 7 minutes prior to necropsy. Organs of interest were immersed in a solution of D-luciferin at 150 mg/ml.
as §1, §2
(§3) Human tumors were induced by orthotopic surgical implantations of 1×10^5 PC-3luc cells into six- to eight-week-old Balb/c nu/nu mice. Ten days after cell injection (day 0), the animals were randomized into the different groups and received the appropriate drugs, as indicated. 6OHDA or vehicle was injected at day 0 (100 mg/kg) and day 2 (250 mg/kg), and human recombinant G-CSF treatment was begun on day 4 (Amgen, 250 μg/kg/day, every 12 hours, 8 divided doses, i.p., in 5% dextrose). A second cycle was administered eight weeks after graft and animals were sacrificed three weeks after the last injection of G-CSF (i.e., 11 weeks after graft). In other experiments, 2×10^5 PC-3luc cells were orthotopically injected into nu/nu Adrβ2^tm1Bkk/J+/+ Adrβ3^tm1Lowl/J+/+, nu/nu Adrβ2^tm1Bkk/J−/−, nu/nu Adrβ3^tm1Lowl/J−/− and nu/nu Adrβ2^tm1Bkk/J−/− Adrβ3^tm1Lowl/J−/−. In selected experiments, 2×10^6 LNCaP-luc cells were injected in nu/nu Adrβ2^tm1Bkk/J+/+ Adrβ3^tm1Lowl/J+/+ and nu/nu Adrβ2^tm1Bkk/J−/− Adrβ3^tm1Lowl/J−/− mice. For the transgenic model, one-, two- or five-month-old c-Myc mice were injected with 6OHDA or surgically sympathectomized according to protocols described above and sacrificed 30 days later.
A second cycle was administered at week four and mice were sacrificed one week later (five weeks after graft). For cholinergic experiments using the nu/nu Chrm1^tm1Stl+/+ and nu/nu Chrm1^tm1Stl−/− animals, mice were sacrificed at week six post-graft. For the survival study, grafted mice were treated as described hereinabove from week 4, every two weeks for up to 25 weeks or until death. Disease progression was monitored by bioluminescence scanner. […] One week later, mice received a second round of treatment and were then sacrificed at month four.

[3] = test system: prostate cancer in cMyc mice; assay: cMyc transgenic mouse model of prostate cancer (mPIN, invasive cancer zones); format: in vivo; conditions: G-CSF; 11 weeks of age
Protocol: To investigate further the activity of G-CSF on tumor development using a genetic mouse model, transgenic mice expressing human cMyc under the ARR2/probasin promoter expressed specifically in the prostate (hereafter cMyc mice) were evaluated. This transgenic model leads to the complete penetrance of mouse prostatic intraepithelial neoplasia (mPIN) from postnatal week 2, progressing to invasive adenocarcinomas between 3 to 6 months of age (FIG. 2m). […] The development of invasive cancer was associated with a broad infiltration of NF-L+ neo-fibers by comparison with control animals (FIG. 2o). Thus, the increased tumor/normal epithelial cell proliferation following G-CSF administration is associated with (i.e., is correlated to) the development of new nerve fibers in the primary tumor. Accordingly, a method of treating cancer in a subject such as a human patient or non-human animal (e.g., non-human mammal) comprises administering a prophylactically or therapeutically effective amount of an inhibitor of NF-L+ neo-fibers. In some embodiments, the method comprises administering a prophylactically or therapeutically effective amount of an inhibitor of G-CSF.
as §3
To ascertain the role of sympathetic innervation in tumor initiation using a genetic model, the effect of chemical or surgical sympathectomy on prostate cancer in cMyc mice was evaluated. For this study, transgenic cMyc mice expressing human c-Myc under the ARR2/probasin promoter expressed specifically in the prostate (AAR2/Pbsn-MYC) were used. This transgenic model leads to the complete penetrance of mouse prostatic intraepithelial neoplasia (mPIN) from postnatal week 2, progressing to invasive adenocarcinomas between 3 to 6 months of age (FIG. 6e). To this end, mice were chemically sympathectomized one month prior to histological analyses.
Disease progression was monitored by bioluminescence scanner. […] Mice were sacrificed at week 10.

B1: G-CSF: human recombinant granulocyte-colony stimulating factor (Amgen), hematopoietic growth factor (protein, UniProt P09919 31-207, looked up)
Granulocyte …: TPLGPASSLPQSFLLKCLEQVRKIQGDGAALQEKLVSECATYKLCHPEELVLLGHSLGIPWAPLSSCPSQALQLAGCLSQLHSGLFLYQGLLQALEGISPELGPTLDTLQLDVADFATTIWQQMEELGMAPALQPTQGAMPAFASAFQRRAGGVLVASHLQSFLEVSYRVLRHLAQP
proliferation of healthy epithelial cells (anti-Ki67 staining) (healthy prostate; G-CSF treatment): led to proliferation
density of NF-L+ nerve fibers in healthy (tumor-free) prostate (healthy prostate; three weeks after G-CSF, vs PBS control): higher density
Chrm1 expression in the prostate gland (healthy prostate; three weeks after last G-CSF injection, Q-PCR): tended to increase
axonal outgrowth vs vehicle-treated controls (murine fetal neurons): about 2 fold
dendrite outgrowth (murine fetal neurons): unchanged
proliferation of PC-3luc tumor cells in vitro (PC-3luc cells [1]): could not stimulate
tumor cell proliferation in the primary tumors (Ki67 staining) (PC-3luc cells [2]; G-CSF 250 μg/kg/day, orthotopic PC-3luc): significantly increased
TH+ fibers against 6OHDA-induced damage (PC-3luc cells [2]; G-CSF after 6OHDA): protected
development of primary tumors initially sympathectomized with 6OHDA (PC-3luc cells [2]; G-CSF after 6OHDA): rescued
metastases in 6OHDA-lesioned animals (PC-3luc cells [2]; G-CSF after 6OHDA): did not induce
invasion of inguinal lymph nodes and metastases (PC-3luc cells [2]; G-CSF alone, bioluminescence, week 11): induced
size of the primary tumor (PC-3luc cells [2]; G-CSF treatment): did not affect
infiltration of VAChT+ parasympathetic neo-nerves (PC-3luc cells [2]; immunofluorescence of tumors): selectively promoted
density of newly formed NF-L+ nerves in prostate tumors (PC-3luc cells [2]; vs PBS, 11 weeks): significantly higher densities
frequency of mPIN [3]: modest, but significant, effect
number of invasive cancer zones [3]: dramatically increased
